# From patent US20200069778A1, “PLANT-EXPRESSED COCAINE HYDROLASE VARIANTS OF BUTYRYLCHOL[…] METHODS OF REDUCING COCAINE-PRIMED REINSTATEMENT” (priority 2018, published 2020)
# B1: WT pBChE (protein, UniProt P06276 29-602, looked up)
# Cholinesterase: EDDIIIATKNGKVRGMNLTVFGGTVTAFLGIPYAQPPLGRLRFKKPQSLTKWSDIWNATKYANSCCQNIDQSFPGFHGSEMWNPNTDLSEDCLYLNVWIPAPKPKNATVLIWIYGGGFQTGTSSLHVYDGKFLARVERVIVVSMNYRVGALGFLALPGNPEAPGNMGLFDQQLALQWVQKNIAAFGGNPKSVTLFGESAGAASVSLHLLSPGSHSLFTRAILQSGSFNAPWAVTSLYEARNRTLNLAKLTGCSRENETEIIKCLRNKDPQEILLNEAFVVPYGTPLSVNFGPTVDGDFLTDMPDILLELGQFKKTQILVGVNKDEGTAFLVYGAPGFSKDNNSIITRKEFQEGLKIFFPGVSEFGKESILFHYTDWVDDQRPENYREALGDVVGDYNFICPALEFTKKFSEWGNNAFFYYFEHRSSKLPWPEWMGVMHGYEIEFVFGLPLERRDNYTKAEEILSRSIVKRWANFAKYGNPNETQNNSTSWPVFKSTEQKYLTLNTESTRIMTKLRAQQCRFWTSFFPKVLEMTGNIDEAEWEWKAGFHRWNNYMMDWKNQFNDYTSKKESCVGL
# modifications: plant-expressed
# Experiment: Radiometric (−)-cocaine hydrolysis assay
# Format: biochemical
# Conditions: 25° C.
molecule,measurement,value
B1,Km,2.9 µM
same,kcat against (−)-cocaine,0.0433 s⁻¹
